{
  "source": "paper PMC3135399",
  "molecular_target": "microtubules (taxol-stabilised, of the MT cosedimentation assay) (bovine) (UniProt Q6B856)",
  "experiment": "co-sedimentation",
  "data": [
    {"substance": "alkaline phosphatase–treated WT CPC, P38283 1-698; P38991 1-367; P47134 1-954; Q3E7Y6 1-73", "values": [
      {"measurement": "percent cosedimented with MTs", "value": 50, "unit": "%"}
    ]}
  ]
}
